Experiment [1] has as its target D8 protein (vaccinia virus).
Experiment [2] has as its target D8 protein (vaccinia virus). The source holds these as a separate data set.
Experiment [3] concerns the target D8 protein (vaccinia virus). In words: BLI (Octet). On the technique in general: In BLI a coated tip is dipped into the sample, and binding shifts an interference pattern.

Usually Kd stands for the free concentration of one partner at which half of the binding sites on the other are occupied at equilibrium, for simple one-to-one binding. Broadly, the koff is the first-order rate constant of dissociation. Lower therefore signals slow dissociation.

Where two headings read alike, the source gives them in different places. Some results are limits rather than exact numbers.

B1: MV49 (antibody, V domains shown)
VH: QVQLQESGGGLVQPGGSLRLSCAASGFTFSNSWMNWVRQAPGKGPEWVARIKRKADGETADYAASVKGRFAVSRDDSKNTLYLQINSLKSEDTAVYYCTTVPPLYDLFYRGAYYFDSWGQGVLITVSS
VL: QPVLTQPPSVSGSPGQSVTISCTGTSSDIGGYKYVSWYQQHPGTAPKLMIYEVNKRPSGVSDRFSGSKSGNTASLTISGLQAEDEADYYCSAYSTSRTYIFGPGTRVTVL
For the molecule B1, the Kd in experiment [1] is 0.011 nM.

B2: MV33 (antibody, V domains shown)
VH: EAQLVESGGGLVHPGGSLRLSCEVSGFTFSNSWMNWVRQAPGKGLECVARIIRNADGETADYAASVRGRFTISRDDPENTLYLRMKSLKTEDTAVYYCTTVPPLSHLFFHETYYFDYWGQGVLVTVSS
VL: QAARTQSPSMSASPGQSVTISCTGTRNDIGGYNYVSWYQQYPGKAPKLMIYDVSKRPSGVSDRFSGSKSGNTASLTISGLQAEDEANYYCSSYAGSNTYVFGSGTKLTIL
In experiment [2], B2 came in with a koff of less than 1e-07 s⁻¹. This molecule gave a Kd in experiment [3] of less than 0.001 nM.

For the origin of these results see EP4669352A1.
